Where a SMILES comes first, the peptide text is derived from it.
Tests used:
[1] = test system: embryologic day 10 dorsal root ganglia neurons; assay: Nonspecific toxicity: NGF-independent neurite outgrowth in response to CNTF; assay type: cell-based, chick; settings: up to 2.6 μmoles/ml, FIG. 3
Experimental: Potential nonspecific toxicity of peptide C5 (KGKE) was investigated with embryologic day 10 dorsal root ganglia neurons which also extend neurites in the presence of ciliary neurotrophic factor (CNTF) The effect of peptide C5 on NGF-independent neurite outgrowth was assessed.

[2] = Resistance to proteolysis during cell culture; assay type: in vitro ADME; settings: 2.0 μmole/ml in culture medium with cells and 100 pg/ml NGF, 24 hr, HPLC
Experimental: The resistance of peptide C5 to proteolytic cleavage during cell culture was assessed. Quadruplicate wells were prepared each containing 2.0 μmole/ml of peptide in culture medium, 100 pg/ml NGF and cells as described above. After 24 hr in culture, 320 ul (4 wells×80 ul) of culture medium were collected. Fresh culture medium containing 2.0 μmole/ml of peptide was also prepared. Both samples of peptide-containing medium were filtered through a Centricon membrane (Amicon, Bedford) with a molecular weight cutoff of 10,000. 250 μl of filtrate was loaded onto a C18 uBondapak analytic HPLC column and run under the same conditions described above for peptide purification. The quantity of peptides in fresh compared to post-culture medium was determined by integration of their absorbance peaks. After 24 hr in culture, more than 80-85% of the initial quantity of peptide C5 was recovered..

ChAT activity = ChAT activity in brain regions after intraventricular NGF in neonatal hamsters; assay type: in vivo, hamster; settings: for increase in septal ChAT activity relative to vehicle-injected animals: single 30 μg injection PD 7, sacrifice PD 9
Experimental: The birth of hamster litters was recorded as day zero. Hamsters were sacrificed at various postnatal ages and several brain regions were quickly dissected. The regions sampled included septum (basal forebrain), caudate-putamen, thalamus, hippocampus, frontolateral neocortex, and brainstem. Dissections were performed as described (Johnston et al, (1987) Neurochem Res 12:985-994). Subiculum was included with hippocampus. Caudal midbrain plus pons constituted the brainstem. For prenatal determinations,a timed-pregnancy animal was anesthetized with Nembutal (15 mg, i.p.) and individual embryos were removed and dissected. Whole forebrain was taken in place of frontolateral neocortex in prenatal animals. ChAT activity was determined in selected tissues as described (Mobley et al, (1985) Science 229:284-287).
NGF was prepared by ion-exchange chromatography and characterized as described in the first example. In experiments in which multiple injections were given, NGF (30 μg) was administered intraventricularly (Mobley et al, (1985) supra) on postnatal day (PD) 3, 5 and 7 and sacrifice was on PD 9. Vehicle-injected animals served as controls. In experiments in which a single injection was given, NGF (30 μg) was administered intraventricularly on PD 7 and animals were sacrificed on PD 9. Controls included animals treated with NGF (30 μg) denatured by reduction and carbamoylmethylation (Morris et al, (1971) Neurobiology 1:64-67), or injection vehicle alone.

PrP = settings: hamster, in vivo
β-PP mRNA = assay: β-protein precursor mRNA levels after NGF injection in neonatal hamsters; assay type: in vivo, hamster
[3] = test system: dissociated embryonic chick dorsal root ganglia neurons; assay: NGF bioassay: support of neurite outgrowth/neuronal survival without NGF (agonist activity); assay type: cell-based; settings: 24 hr culture
From the text: After synthesis, the peptides of the present invention may then be assayed to determine their activity in the NGF bioassay using dissociated embryonic chick dorsal root ganglia neurons according to published procedures, such as, for example, Riopelle et al, (1981) J Neurobiol 12:175-186 or Varon et al (1981) Dev Brain Res 1:73-87. […] If the peptide of interest is capable of inhibiting neuronal attachment, survival or neurite outgrowth in the presence of NGF, the peptide is defined as an antagonist. Similarly, if the peptide is capable of supporting neuronal attachment, survival or neurite outgrowth in the absence of NGF, it is defined as an agonist.
NGF bioassays using dissociated embryonic chick dorsal root ganglia neurons have been described (Varon et al, (1981) Dev Brain Res 1:73-87); Riopelle et al, (1981) J Neurobiol 12:175-186). Approximately 30 dorsal root ganglia were dissected from each developmental day 8 chick embryo. […] During this incubation, non-neurons more readily attach to the substratum; therefore, the resulting supernatant contained a relatively enriched neuronal population (80-90% neurons). […]
The results obtained were similar in each experiment; FIG. 1A represents the data obtained from the second experiment. […] Neurite outgrowth was assessed by phase contrast microscopy. The number of neurite-bearing cells in a fixed area of the well was counted. […]

PrP mRNA = settings: hamster, in vivo

Molecule	effect on number of neurons bearing neurites in response to CNTF [1]	initial quantity of peptide recovered after culture [2]	increase in septal ChAT activity (ChAT activity; 30 μg intraventricularly PD 3, 5, 7, sacrifice PD 9, FIG. 5A)	increase in septal ChAT activity relative to vehicle-injected animals (ChAT activity)	septal ChAT activity (mean±SEM) (ChAT activity; single 30 μg injection PD 7, sacrifice PD 9, n=4)	ChAT activity in caudate-putamen (ChAT activity; single injection, n=3)	increase in ChAT activity in caudate-putamen (ChAT activity; single injection, neonatal hamsters)	increase in PrP in septum (Western blot) (PrP)	increase in β-PP mRNA levels relative to vehicle-injected animals (β-PP mRNA; single treatment on PD7, septum)	increase in β-PP in thalamus (β-PP mRNA; single treatment, FIG. 6)	concentration giving maximum neurite outgrowth [3]	effect on PrP mRNA levels in hippocampus (PrP mRNA)	effect on PrP mRNA levels in thalamus (PrP mRNA)	increase in PrP mRNA in caudate-putamen relative to vehicle-injected animals (PrP mRNA)	increase in septal PrP mRNA levels (PrP mRNA)	increase in septal PrP mRNA relative to controls (PrP mRNA)
NCCCC[C@H](NC(=O)CNC(=O)[C@@H](N)CCCCN)C(=O)N[C@@H](CCC(=O)O)C(N)=O [C5, KGKE-NH2] (H-KGKE-NH2)	no detectable effect	80-85%														
NGF: purified from male mouse submaxillary gland; β-NGF is a dimer of two identical 118 amino acid chains (protein, UniProt P01139 122-241, looked up, beta-NGF, purified from male mouse submaxillary gland; β-NGF is a dimer of two identical 118 amino acid chains) Beta-nerve growth factor: SSTHPVFHMGEFSVCDSVSVWVGDKTTATDIKGKEVTVLAEVNINNSVFRQYFFETKCRASNPVESGCRGIDSKHWNSYCTTTHTFVKALTTDEKQAAWRFIRIDTACVCVLSRKATRRG			increased almost two-fold	100%	44.0±5.0 nmol acetylcholine (ACh) formed/hr/mg protein	92.4±6.3 nmol acetylcholine (ACh) forme	approximately 65%	3.3 fold	4 fold	no increase	approximately 800 pg/ml	no effect	no effect	70%	~9 fold	approximately 10 fold
NGF denatured by reduction and carbamoylmethylation: NGF (30 μg) denatured by reduction and carbamoylmethylation, used as control (protein, UniProt P01139 122-241, looked up, beta-NGF reduced and carbamoylmethylated (denatured), NGF (30 μg) denatured by reduction and carbamoylmethylation, used as control) Beta-nerve growth factor: SSTHPVFHMGEFSVCDSVSVWVGDKTTATDIKGKEVTVLAEVNINNSVFRQYFFETKCRASNPVESGCRGIDSKHWNSYCTTTHTFVKALTTDEKQAAWRFIRIDTACVCVLSRKATRRG				No increase											No increase	
